Target: T1, non-activatable Factor X (FXn) (Homo sapiens (Human), UniProt P00742 41-488, single biotin on the C-terminal BioTag)
T1 construct: also called BIIB-FX-015
Assay: BLI; class meaning: paragraph 285

Row | binding result | Binder
1 | binds | BIIB-12-919 (antibody, V domains shown, IgG) VH: QVQLVQSGAEVKKPGASVKVSCKASGYTFTSYYMHWVRQAPGQGLEWMGVINPSGGSTSYAQKFQGRVTMTRDTSTSTVYMELSSLRSEDTAVYYCARGANIAVGRRYADYWGQGTLVTVSS VL: DIQMTQSPSTLSASVGDRVTITCRASQSISSWLAWYQQKPGKAPKLLIYKASSLESGVPSRFSGSGSGTEFTLTISSLQPDDFATYYCQQVSSYPTFGGGTKVEIK
2 | binds | BIIB-12-922 (antibody, V domains shown, IgG) VH: QVQLVQSGAEVKKPGASVKVSCKASGYTFTSYYMHWVRQAPGQGLEWMGIINPSGGSTSYAQKFQGRVTMTRDTSTSTVYMELSSLRSEDTAVYYCARRGRIAGMWGQGTTVTVSS VL: not shown
3 | binds | BIIB-12-923 (antibody, V domains shown, IgG) VH: QVQLVQSGAEVKKPGASVKVSCKASGYTFTSYYMHWVRQAPGQGLEWMGIINPSGGSTSYAQKFQGRVTMTRDTSTSTVYMELSSLRSEDTAVYYCARGAGYLQRAFDIWGQGTMVTVSS VL: DIQMTQSPSTLSASVGDRVTITCRASQSISSWLAWYQQKPGKAPKLLIYKASSLESGVPSRFSGSGSGTEFTLTISSLQPDDFATYYCQQFKSLSFTFGGGTKVEIK

More lines, now with the values behind:

Row | Binder | binding result
4 | BIIB-12-920 (antibody, V domains shown, IgG) VH: QVQLVQSGAEVKKPGASVKVSCKASGYTFTSYGISWVRQAPGQGLEWMGWISPYNGNTNYAQKLQGRVTMTTDTSTSTAYMELRSLRSDDTAVYYCARGSGHTTMFWGQGTLVTVSS VL: EIVMTQSPATLSVSPGERATLSCRASQSVSSNLAWYQQKPGQAPRLLIYSASTRATGIPARFSGSGSGTEFTLTISSLQSEDFAVYYCQQANAYPPTFGGGTKVEI | binds
5 | BIIB-12-915 (antibody, V domains shown, IgG) VH: QLQLQESGPGLVKPSETLSLTCTVSGGSISSSRYYWGWIRQPPGKGLEWIGSIYYSGSTYYNPSLKSRVTISVDTSKNQFSLKLSSVTAADTAVYYCARVGGGYANPWGQGTLVTVSS VL: not shown | binds
6 | BIIB-12-916 (antibody, V domains shown, IgG) VH: QVQLVQSGAEVKKPGASVKVSCKASGYTFTSYYMHWVRQAPGQGLEWMGIINPSGGSTSYAQKFQGRVTMTRDTSTSTVYMELSSLRSEDTAVYYCARGGRQKATRRVDVWGQGTVVTVSS VL: DIQMTQSPSSLSASVGDRVTITCRASQSISSYLNWYQQKPGKAPKLLIYAASSLQSGVPSRFSGSGSGTDFTLTISSLQPEDFATYYCQQLAITPFTFGGGTKVEIK | binds
7 | BIIB-12-918 (antibody, V domains shown, IgG) VH: QVQLVESGGGVVQPGRSLRLSCAASGFTFSSYGMHWVRQAPGKGLEWVAVISYDGSNKYYADSVKGRFTISRDNSKNTLYLQMNSLRAEDTAVYYCAKSLGGRSFDIWGQGTMVTVSS VL: DIQMTQSPSSLSASVGDRVTITCRASQSISRYLNWYQQKPGKAPKLLIYAASSLQSGVPSRFSGSGSGTDFTLTISSLQPEDFATYYCQQIFSLPITFGGGTKVEIK | binds
8 | BIIB-12-921 (antibody, V domains shown, IgG) VH: QVQLVESGGGVVQPGRSLRLSCAASGFTFSSYGMHWVRQAPGKGLEWVAVISYDGSNKYYADSVKGRFTISRDNSKNTLYLQMNSLRAEDTAVYYCAKVGDRGTRAFDPWGQGTLVTVSS VL: DIQMTQSPSSVSASVGDRVTITCRASQGISRWLAWYQQKPGKAPKLLIYAASSLQSGVPSRFSGSGSGTDFTLTISSLQPEDFATYYCQQGNVFPLTFGGGTKVEIK | binds
9 | BIIB-12-914 (antibody, V domains shown, IgG; also called BIB-12-914) VH: QVQLVQSGAEVKKPGASVKVSCKASGYTFTSYYMHWVRQAPGQGLEWMGIINPSGGSTSYAQKFQGRVTMTRDTSTSTVYMELSSLRSEDTAVYYCARAPRYRGTMDVWGQGTTVTVSS VL: not shown | binds

Reference: US20230192896A1 (BIOVERATIV THERAPEUTICS, published 2023)
